Laboratory results as given in US12168677B2, “Proteins for the treatment of epithelial barrier function disorders” (Genevive, Inc., priority 2017, dated 2024).

Assays:
DSS treated mice [1] = assay: DSS model of inflammatory bowel disease: 4KDa-FITC dextran translocation across the epithelial barrier; assay type: in vivo, C57BL/6 mice; conditions: 50 nmoles/kg i.p. b.i.d., 2.5% DSS 6 days; for 4KDa-FITC dextran in serum compared to DSS mice treated with vehicle: day 6
Method: Specifically, the mice in Example 1E were treated with dextran sodium sulfate (DSS), a chemical known to induce intestinal epithelial damage and thereby reduce intestinal barrier integrity and function. DSS mice are well-accepted models of colitis. In Example 1E, mice were treated with SG-15 protein approximately concurrent with (6 hours prior to) administration of DSS. The mice were then assessed for effects of SG-15 on clinically relevant markers of improved health. Eight-week old C57BL/6 mice were housed 5 animals were cage and given food and water ad libitum for 7 days. Following the 7-day acclimation period, treatments were initiated concurrently with addition of 2.5% DSS to the drinking water. […] The mice were treated with 2.5% dextran sodium sulfate (DSS) in their drinking water for 6 days. Treatments were continued with SG-15 or […]-GLP2 twice a day (b.i.d.) in the morning and evening (every 8 and 16 hr) with i.p. injections at 50 nmoles/kg. Fresh 2.5% DSS drinking water was prepared every 2 days. On day six, mice were fasted for four hours and then orally gavaged with 600 mg/kg 4 KDa dextran labeled with fluorescein isothiocyanate (FITC) [4KDa-FITC]. One hour after the 4KDa-FITC gavage mice were euthanized, blood was collected and FITC signal was measured in serum. […] Results are shown in FIG. 4, and are presented as mean±SEM. The graph in FIG. 4 represents data pooled from 2 individual experiments (n=20).

DSS treated mice [2] = assay: DSS model: gross pathology score; assay type: in vivo, C57BL/6 mice; conditions: 50 nmoles/kg i.p. b.i.d., 2.5% DSS 6 days; for Gross pathology compared to vehicle treated DSS mice: score 0-5
Method: Eight-week old C57BL/6 mice were housed 5 animals were cage and given food and water ad libitum for 7 days. Following the 7-day acclimation period, treatments were initiated concurrently with addition of 2.5% DSS to the drinking water. […] The mice were treated with 2.5% dextran sodium sulfate (DSS) in their drinking water for 6 days. Treatments were continued with SG-15 or […]-GLP2 twice a day (b.i.d.) in the morning and evening (every 8 and 16 hr) with i.p. injections at 50 nmoles/kg. Fresh 2.5% DSS drinking water was prepared every 2 days. Gross pathology observations were made in mice included in the concurrent DSS model performed in Example 1E. […] The scoring system used was: (0)=no gross pathology, (1)=streaks of blood visible in feces, (2)=completely bloody fecal pellets, (3) bloody fecal material visible in cecum, (4) bloody fecal material in cecum and loose stool, (5)=rectal bleeding. Results are shown in FIG. 7, with the graph representing data pooled from the 2 individual experiments (n=20).

B1: SG-16: 119 amino acid protein (SEQ ID NO:9) encoded by the genome of Eubacterium eligens (protein, listed as Eubacterium eligens)
chain: MTGCSGSKEPDNKTSVDYTVVENADLPEELKKLIESKKDKVMRLTYTTKDYTYVVAGYGTRETSGYSIKVNDVYTGDNALYIDLNLIGPAAGEAVNEVETYPVIVLKMERREESVVFKM
DSS treated mice [1]
  4KDa-FITC dextran in serum compared to DSS mice treated with vehicle: significant reduction in 4KDa-FITC dextran
DSS treated mice [2]
  Gross pathology compared to vehicle treated DSS mice: did not reduce gross pathology

B2: SG-15: 400 amino acid protein (SEQ ID NO:1) encoded by the genome of Eubacterium eligens (protein, listed as Eubacterium eligens)
chain: EYTEIRTASELVEAAKSASGNYKLMTDIDMTGVEWTPWDFSGTFDGNGHSILNLSVKTVSKKTMKTYDGNRKEYKTYGAGFFGVLTGAKVTGLDIYGARIEITTTEPCFAAPIAGLADDSDISDCIIKDTYVSLTDSAKMWGTGGIAGFGSGNLDNITTDVTLVCVDTDAAVRDEQFMGGAYAAGFLNIRNCSITIDGYDSDHGYVHDGGLVGMYMVYPLELSKTYQGEVLNNKVKGMITFFEDNTDRRAYCQANMGEVMNWTYAYSGFTSDFKRNETYDYSVTLLPEMCSNPSYTDVVTEATASDFGYTTHTCSTCGYTYSDTYTIHEHKVDSYSVVKEAASTDKKDGIEAGTCSLCNQTVYREYAANVVTDDNTQATDNKASGTAVKKGMKESTAVFA
DSS treated mice [1]
  4KDa-FITC dextran in serum compared to DSS mice treated with vehicle: significant reduction in 4KDa-FITC dextran
DSS treated mice [2]
  Clinical scores compared with DSS mice treated with Gly2-GLP2: No differences
  Gross pathology compared to vehicle treated DSS mice: significantly improved gross pathology

B3: SG-18: 267 amino acid protein (SEQ ID NO:19) encoded by the genome of Clostridium bartlettii sp. nov. (protein, listed as Clostridium bartlettii)
chain: EVDSSKEQATSKDEKQVVVATSVAITEILDRLGVEVSGVPQTSYELPESAKGATEIGSPMNPDMEIIKSLNPTDVICVDTLGSDFEKQFEENNINADFYNLSNVDGLKETIAALGEKFNKQDKANEILDEIKEVENKVNSNKKSDDKILVLFGAPGSVMVATDKSYIGNLVELAGGNNIFSNATSSFTQINLEEIIKLNPDKILVMTHAVPEAAKKSVEEELSKDLWKNVNAVKNNDITYLENGYFGMSANLQIVEAVEKLGDILYE
DSS treated mice [1]
  4KDa-FITC dextran translocation compared to positive control Gly2-GLP2: even lower than the positive control
  4KDa-FITC dextran in serum compared to DSS mice treated with vehicle: significant reduction in 4KDa-FITC dextran
DSS treated mice [2]
  Gross pathology compared to vehicle treated DSS mice: did not reduce gross pathology

B4: SG-17: 327 amino acid protein (SEQ ID NO:13) encoded by the genome of Eubacterium eligens (protein, listed as Eubacterium eligens)
chain: CNSKIDVKYDYNVEDYVQLGQYENISVQVDKTSIENELIESKIKQDVEDNTTYTEVDRGAIASDQILVTYTATSSGASLSGLTNTDGKTMILGTDTLGLELDELDQALYGMTPGQTKILIVDIPEDYSSDLYKGTRVVFELTMQTVAQANVPMITNAYVKEAFGYDTVEEYRQSIKESLETDINSKVENKIQEDVLSSLQDTFKISSYPDSLMEETRSRLETSIGFYADFSNLSKDEYCQKQYGLSFDDFVKKSVVQQLIMEAIVKDRNMTMREYDYKGSLDDFAADNGYSNADTFVEKFGKDKIVKAMLVQKAQDYVIEHANISYK
DSS treated mice [1]
  4KDa-FITC dextran in serum compared to DSS mice treated with vehicle: not altered
DSS treated mice [2]
  Gross pathology compared to vehicle treated DSS mice: did not reduce gross pathology
